Results published in patent US11371056B2, “HPPD variants and methods of use” (BASF Agricultural Solutions Seed US LLC, priority 2017, dated 2022).
Changes are numbered by the printed parent chain.

B1: SEQ ID NO:4 (protein)
chain: MADLYENPMGLMGFEFIEFASPTPGTLEPIFEIMGFTKVATHRSKNVHLYRQGEINLILNNEPNSIASYFAAEHGPSVCGMAFRVKDSQKAYNRALELGAQPIHIDTGPMELNLPAIKGIGGAPLYLIDRFGEGSSIYDIDFVYLEGVERNPVGAGLKVIDHLTHNVYRGRMVYWANFYEKLFNFREARYFDIKGEYTGLTSKAMSAPDGMIRIPLNEESSKGAGQIEEFLMQFNGEGIQHVAFLTDDLVKTWDALKKIGMRFMTAPGDEYYEMLEGRLPDHGEPVDQLQARGILLDGSSVEGDKRLLLQIFSEQLMGPVFFEFIQRKGDDGFGPDSFKVLFESIERDQVRRGVLTAD
modifications: mutant HPPD polypeptide
B2: SEQ ID NO:6 (protein)
chain: B1 chain with Q315T
modifications: mutant HPPD polypeptide
B3: SEQ ID NO:12 (protein)
chain: B1 chain with Q315R, S344Q
modifications: mutant HPPD polypeptide
B4: SEQ ID NO:5 (protein)
chain: B1 chain with Q315R
modifications: mutant HPPD polypeptide
B5: SEQ ID NO:14 (protein)
chain: B1 chain with Q315K, I345M
modifications: mutant HPPD polypeptide
B6: SEQ ID NO:11 (protein)
chain: B1 chain with S344Q
modifications: mutant HPPD polypeptide
B7: SEQ ID NO:13 (protein)
chain: B1 chain with Q315T, S344Q
modifications: mutant HPPD polypeptide
B8: SEQ ID NO:7 (protein)
chain: B1 chain with M264L, Q315K
modifications: mutant HPPD polypeptide
B9: SEQ ID NO:8 (protein)
chain: B1 chain with M264L
modifications: mutant HPPD polypeptide
B10: SEQ ID NO:9 (protein)
chain: B1 chain with M264L, Q315T
modifications: mutant HPPD polypeptide
B11: SEQ ID NO:3 (protein)
chain: B1 chain with Q315K
modifications: mutant HPPD polypeptide
B12: SEQ ID NO:10 (protein)
chain: B1 chain with Q315K, S344Q
modifications: mutant HPPD polypeptide

Test system: Pseudomonas fluorescens HPPD polypeptide (wild-type and mutants)
Assay: Coupled HPPD activity assay: turnover and residual turnover in crude HPPD polypeptide extracts with and without Cmpd. 1
Type: biochemical
Settings: 100 μM Cmpd. 1, normalised to turnover without inhibitor
Protocol: For the generation of crude HPPD polypeptide extract in micro titer plates (MTP) for the determination of residual activity in inhibition assays, cells were grown in 40 or 150 μl LB medium containing 1% Glucose (Merck, Darmstadt, Germany) and 100 μg/ml ampicillin in a standard 96 well plate (Thermo Fisher Scientific, Waltham, USA) incubated for about 18 h in a humidity incubator at 37° C. 30 μl of this starter culture were added to 600 μl LB medium containing 100 μg/ml ampicillin and 150 mM Hepes (Merck, Darmstadt, Germany) as inoculum for the expression culture in 96 well plates (2 ml deep wells; HJ Bioanalytik, Erkelenz, Germany). The plates were sealed by an aluminium foil, and cells were incubated for 5 h at 37° C. on a plate shaker at 750 rpm. The expression was induced by addition of IPTG in a final concentration of 1 mM followed by further sealed incubation for about 18 h at 30° C. on a plate shaker at 750 rpm.
Cells were harvested by centrifugation at 4° C., 2500 g for 15 min discarding the supernatant. Cell pellets were stored at −80° C. and lysed in 250 μl 1× BugBuster® (Merck, Darmstadt, Germany) in 140 mM Tris (pH 7.8), with 1:25000 diluted BNase® (Qiagen, Hilden, Germany) by incubation of the resuspended cells for 30 min at 4° C. and 1000 rpm. Lysates were clarified by centrifugation for 15 min at 4° C., 2500 g, and 150 μl supernatant were transferred in standard 96 well plate (Thermo Fisher Scientific, Waltham, USA) for subsequent testing in quadruplets.
The activity of HPPD polypeptides was determined in absence or presence of HPPD inhibitors using the coupled HPPD activity assay (FIG. 1).
For the determination of the residual activity, the apparent kinetic constant (kapp) of the determined substrate conversion was measured as kinetic changes in absorbance (OD) at 320 nm in a coupled assay, in that homogentisate (HGA) formed by HPPD from HPP is directly converted into the well absorbing molecule maleylacetoacetate (MAA) by a second enzyme homogentisate dioxygenase (HGD), applied in excess uniformly in all assays (see FIG. 1). The measurements were performed in 384 micro titer plates (Greiner Bio-One GmbH, Frickenhausen, Germany) by plate readers (Tecan infinite M1000 or M1000PRO, Tecan, Männedorf, Switzerland). The kcat/kM ratio of an enzymatic activity is proportional to the apparent kinetic constant kapp and is proportional to kcat/kM*[E] ([E]=enzyme concentration). […] As both kapp measurements in the presence and absence of inhibitor were performed by use of the identical enzyme sample, crude or purified, and thereby at the same enzyme concentration, the enzyme concentration eliminates from the calculation of residual activity and the ratio of both kapp directly indicates the change of kM due to the inhibition.
The assay solution used for determination of residual activities in raw HPPD polypeptide samples was composed by 200 mM sodium phosphate (Merck, Darmstadt, Germany, pH 7.0), 5 mM MgCl2 (Merck, Darmstadt, Germany), 20 mM ascorbate (Sigma-Aldrich, St. Louis, USA), 1 mM DTT (Sigma-Aldrich, St. Louis, USA), 0.1% Pluronic F-68 (Sigma-Aldrich, St. Louis, USA), 40 μM FeSO4 (Sigma-Aldrich, St. […] Louis, USA) and equilibrated for 20 min on ice.

| Molecule | Residual turnover [%] |
| --- | --- |
| B1 | 50 |
| B2 | 33 |
| B3 | 40 |
| B4 | 44 |
| B5 | 40 |
| B6 | 46 |
| B7 | 38 |
| B8 | 59 |
| B9 | 66 |
| B10 | 65 |

Same assay, conditions: absence of Cmpd. 1; changes in absorbance (OD) at 320 nm in the coupled assay, 30 min

| Molecule | Turnover |
| --- | --- |
| B11 | 0.013 |
| B1 | 0.121 |
| B2 | 0.159 |
| B3 | 0.189 |
| B4 | 0.162 |
| B5 | 0.18 |
| B6 | 0.183 |
| B7 | 0.168 |
| B12 | 0.018 |
| B8 | 0.126 |
| B9 | 0.124 |
| B10 | 0.109 |

Same assay, conditions: presence of 100 μM Cmpd. 1; changes in absorbance (OD) at 320 nm in the coupled assay, 30 min

| Molecule | Residual turnover |
| --- | --- |
| B11 | 0.012 |
| B1 | 0.06 |
| B2 | 0.052 |
| B3 | 0.076 |
| B4 | 0.071 |
| B5 | 0.072 |
| B6 | 0.085 |
| B7 | 0.064 |
| B12 | 0.021 |
| B8 | 0.074 |
| B9 | 0.082 |
| B10 | 0.071 |
